Laboratory results taken from the nanobody polyreactivity screen of Harvey et al. (2022).

Test: yeast display, Sf9 membrane polyspecificity reagent, FACS + sequencing; frameworks hold sequencing errors
How it was run: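 Galactose-induced (36–48 hours) yeast carrying a synthetic nanobody display library were exposed to 10% biotinylated, detergent-solubilized Sf9 membrane reagent at 4 °C for 1 hour. FACS followed streptavidin microbead enrichment, using low and high (top ~1%) gates for expression (anti-HA) and reagent binding (streptavidin). Colony PCR, MiSeq 2 × 250 sequencing and CDR-length filtering followed. Labels for polyreactivity reflect the gate of origin.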

Row | Sequence | polyreactivity (PSR sort gate)
1 | QVQLVESGGGLVQAGGSLRLSCAASGSIFADYVMGWYRQAPGKERELVAAISRGGGRTYYADSVKGRFTISRDNAKNTVYLQMNSLKPEDTAVYYCAARGYPTNYDPGYTYDYWGQGTQVTVSS | high polyreactivity
2 | QVQLVESGGGLVQAGGSLRLSCAASGRTFKWNPMGWYRQAPGKERELVAAITRSDGRTFYADSVKGRFTISRDNAKNTVYLQMNSLKPEDSAVYYCNALGYRNSVIYSGFDYWGQGTQVTVSS | low polyreactivity
3 | QVQLVESGGGLVQAGGSLRLSCAASGSIFAAYTMGWYRQAPGKERELVAAISVSTVSTYYADSVKGRFTISRDNAKNTVYLHMNSLKPEDTAVYYCNADATDSYPEKDDHDSWGQGTQVTVSS | low polyreactivity
4 | HVQLVESGGGLVQAGGSLRLSCAASGFIGIYALGWYRQAPGKERELVAAITTSGGRTYYADSVKGRFTISRDNAKNTVYLQMNSLKPEDTAVYYCAAPWRLFSLYDYWGQGTQVTVSS | low polyreactivity
5 | QVQLVESGGGLVQAGGSLRLSCADSGRTFSYNLMGWYSQAPGKESEVVAAISRRGGSTYYADSVKGRFTISRDNAKNTVYLQMNSLKPEDTAVYYCNAVSPSPGGGYWGQGSQVTVSS | high polyreactivity
6 | QVQIEESGGGLDQAGGSLRLTCAASGFTIPSYTRGWYRQAPGKERELVAAISRSDGTTYYAYSVKGRFTISRDNAKNSVYLQLNSLKPEDTAVYYCNKAYKRYGYHYDYWGQGTQVTVSS | high polyreactivity
7 | QVQLVESGGGLVQAGGSLRLSCAASGFTFPRYAMGWYRQAPGKERELVAVITRRGGSTYYADSVKGRFTISRDNAKNTVYLQMNSLKPEDTAVYYCAARQYSYNGGYGYWGQGTQVTVSS | high polyreactivity
8 | QVQLVESGGGLVQAGGSLRLSCAASGSTFYYYAMGWYRQAPGKERELVAAISNRDGRTYYADSVKGRFTISRDNAKNTVYLQMNSLKPEDTAVYYCNAYSYGHYYWGQGTQVTVSS | high polyreactivity
9 | QVQLVESGGGLVQAGGSLRLSCAASGSTFIDYAMGWYRQAHGKERELVAGISSGDSTDYADSVKGRFTISRDNAKNTVYLQMNSLKPEDTAVYYCNADWNPTERWFYWYTPLGYDYWGQGTQVTVSS | low polyreactivity
10 | QVQLVESGGGLVQAGGSLRLSCAASGGTFAVNVMGWYRQAPGKERELVAAITSNGGSTYYADSVKGRFTISRDNAKNTVYLQMNSLTPEATAVYYCAAEGSGWYTGHYYYWGQGTQVTVSS | low polyreactivity
11 | QVQLVESGGGLVQAGGSLRLSCADSGFTFTYYDMGWYRQAPGKERELVAAISSGGSTNYADSVKGRFTISRDNAKNTVYLQMNSLKPEDTAVYYCAASITHYWYGYWGQGTQVTVSS | high polyreactivity
12 | QVHLVESGGGLVQAGGSLRLSCAASGRTFDRYDMGWYRQAPGKEWELVATISSSGGSTYYADSVKGRFTISRDNEKNTVYLQMNSLKPEDTAVYYCAADPSGDYWGQGTQVTVSS | low polyreactivity
13 | EVQLVESGGGLVQAGGSLRLSCAASGRIFVHYAMGWYRQAPGKERELVAAITSGSSTNYADSVKGRFTISRDNAKNTVYLQMNSLKPEDTAVYYCAADYSVHRVRDRWFDYWGQGTQVTVSS | low polyreactivity
14 | QVQLVESGGGLVQAGGSLRLSCAASGRTFGQYVMGWYRQAPGKERELVAAISSGDSTNYADSVKGRFTISRDNAKNTVYFQMNSLKPEDTAVYYCAAVYWVLWQGSTYGYWGQGTQVTVSS | low polyreactivity
15 | QVQLVESGGGLVQAGGSLRLSCAASGRTFWPYAMGWYRQAPGKERELVAAISTSGGSTYYADSVKGRFTISRDNAKNTVYLQMNSLKPEDTAVYYCAAYSTLTPAYEYWGQGTQVTVSS | high polyreactivity
16 | QVQLVESGGGLVQAGGSLRLSCAASGRTFHYNAMGWYRQAPGKERELVAAITRSGGSTYYADSVKGRFTISRDNAKNTVYLQMNSLKPEDTAVYYCNAAYLHPGPFDYWGQGTQVTVSS | low polyreactivity
17 | QVQLVESGGGLVQAGGSLRLSCAASGSIYTHNAMGWSRQAPGKERELVAAISSGGSTNYADSVKGRFTISRDNAKNTVYLQMNSLKPEDTAVYYCAKSIDGWYWRRRRYDYWGQGTQVTVSS | low polyreactivity
18 | QVQLVEAGGGLVQAGGSLRLSCASSGNTFYPYAMGWYRQAPGKERELVAVITSGTDTYYADSVKARFTISRDNAKNTVYLQMNSLKPEDTAVYYCAASLYWRYGYWGQGTQVTVSS | high polyreactivity
19 | QVLLQESGGGLVQAGGSLRLSCAASGNIFSAGGMGWYRQAPVNERELVAGIGTGTSTNYADRVKGRFTISRDNAKNTVYLQMNSLKPEDTAVDYCAAAYYSGLSHWYWGQGTQVTVSS | low polyreactivity
20 | QVQLVESGGGLVQAGGSLRLSCAASGSTFTVNGMGWYRQAPGKERELVASITWSGGSTYYADSVKGRFTISRDNAKISVYLHMTSLIPEDTAVYYCAADEKLYITGYDYWGQGTQVTVSS | low polyreactivity
21 | QVQLQESFVGLVQAGGSLRLICAASGNIFPTDRMGWYRQAPGKELEFVATISHGGSTNYADSVKGRFTISRDNAKHTVYLQMNSLKPEDTAVYYCAVWSLGRWRNYYWGQGTQVTVIS | low polyreactivity
22 | QVQLVESGGGLVQAGGSLRLSCAASGSTFPSYAMGWYRQAPGKESELVAAITNGGSTTYADSVKGRFTISRDNAKNTVYLQMNSLKPEDTAVYYCAARYYYYYYYIRRDYWGQGTQVTVSS | low polyreactivity

Row | Sequence | polyreactivity (PSR sort gate)
23 | QVQLVESGGGLVQAGGSLRLSCAASGRIFGDYAKGWYRQAPGKERELVAAIRFDTGSTYYADSVKGRFTISRDTAKNTVYLQMNSLKPEDTAVYYCAAQHRGVQVTFGEYDYWGQGTQVTVSS | low polyreactivity
24 | QVQLVESGGGLVQAGGSLRLSCAASGRIYGYYGMGWYRQAPGKERELVAAITYRGGSTYYADSVKGRFTISRDNAKNTVYLQMNSLKPEDTAVYYCAADGYSHYRYLYDYWGQGTQVTVSS | low polyreactivity
25 | QVQLVESGGGLVQAGGSLRLSCAASGSIFYVNAMGWYRQAPGTERELVAAISWRSGRTYYADSVKGRFTISRDHAKNTVYLQMHSLKPEDTAVYYCAARVRRGSTQAQYYYWGQGTQVTVSS | high polyreactivity
26 | QDQLVESGGGLVQAGGSLRLSCAASGSTFDGYAMGWYRPAPGKERELVADITSGGSTYYADSVKGRFTISRDNAKNTVYLQMNSLKPEDTAVYYCAVEGWWDDYNSRAGEFNYWGQRTQVTVSS | low polyreactivity
27 | QVQLVESGGGLVQAGGSLRLSCAASGSTFSWYAMGWYRQAPGKERELVAAISSGGSTNYADSVKGRFTISRDNAKNTVYLQMNSMKPEDTAVYYCAAVWSRFLISYSTGWWFEYWGQGTKVTVSS | low polyreactivity
28 | QVQLVESGGGLVQAGGSLRLSCAASGFILGYNAMGWYRQAPGKERELVADITFSGGGTNYADSVKGRFTISRDNAKNSVYLQMNSLKPEDTAVYYCNAAAFSQLRVRYDYWGQGTQVTVSS | low polyreactivity
29 | QVHLVESGGGLVQAGGSLRLSCAASGSTFRGYGMGWYRQAPGKERELVAAISWRAASTYYADSVKGRFTISRDNAKNTVYLQMNSLKPEDTAVYYCAARYSFSSSTRYYYWGQGTQVTVSS | high polyreactivity
30 | QVQLVESGGGLVQAGGSLRLSCAASGLTFTTYAMGWSRQAPGKERELVAAISRRGSRTYYADSVKGRFTISRDNAKNTVYLQMNSLKPEDTAVYYCNALTGSFKTYSFDYWGQGTQVTVSS | high polyreactivity
31 | QVQLVESGGGLVQAGGSLRLSCAASGSILVNNAMGWYRQAPGKERELVAAISRSGTRTFYADSVKGRFTISRENAKNTVYLQMNSLKPEDTAVYYCAVDYYYRMDYWGQGTQVTVSS | high polyreactivity
32 | QVQLVESGGGLVQAGGSLRLSCAASGRIFLRYTMGWYRQAPGKDRELVAAISGGGSTNYADSVKGRFTISRDNAKNTVYLQMNSLKPEDTAVYYCAADYIWLSHPYRRVDFYYWGQGTQVTVSS | low polyreactivity
33 | QGQLVESGGGLVQAGGSLRLSCAASVFTFAFYTMGWYRQATGKERELVAANTRSGGSTYYPDSVKGRFTISRDNAKNTVYLQRNSLKPEDTPVYYCAARGNTPRTRRYGYWGQGTQVTVSS | high polyreactivity
34 | QVQLVESGGGLVQAGGSLRLSCAASGRIFTRYAMGWYRPAPGKERELVAVIRYSGGSTYYADSVKGRFTISRDNAKNTVYLQMNSLKPEDTAVYYCAAYARGVRRYRRYDYWGQGTQVTVSS | high polyreactivity
35 | QVQLVESGGGLVQAGGSLRLSCASSGSTFYTNAMGWYRQAPGKESEFVDAISWSGSSTYADSVKGRFTISRDNAKITVYLQMNSLKPEDTAVYYCAKATSSLYHYRYDYWGQGTQVTVSS | low polyreactivity
36 | QVHLVESGGGLVQAGGSLRLSCAASGSNFDINAMGWYRQAPGKERELVAVITDSGSTYYADSVKGRFTISRDNAKNTVYLQMNRLKPEDTAVYYSAADQVVAGLLTPEYDYWGQGTQVTVSS | low polyreactivity
37 | QVQLVESGGGLVQAGGSLRLSCAASGFIFGYNAMGWYRQAPGKERELVAAITWSGGSTYYADSVKGRFTISRDNAKNTVYLQMNSLKPEDTAVDYCNWPGEGDYWGQGTQVTVSS | low polyreactivity
38 | QVQLVESGGGLVQAGGSLRLSCAASGIILPYYVMGSYRPAPGKERELVAAISSGGRTYYADSVKGRFTISRDNAKNTVYLQMNSLKPEDTAVYYCNAYFTGKWYDYWVQGTQVTVSS | high polyreactivity
39 | QVQLVESGGGLVQAGGSLRLSCAASGSTFSRYTMGWSRQAPGKERELVAAISYRGGSTYYADSVKGRFTISRDNAKNTVYLQMNSLKPEDTAVYYCAADAEGSASKYDYWGQGTQVTVSS | low polyreactivity
40 | QDQLVESGGGLVQAGGILRLSCAASGSTFFHYAMGWYRQAPGQEREFVAANDSNGGSTYYADSVKGRFSISRDNAKNTVYLQMTCLKPEETAVNYCAADDLAEFEYDYWGQGTQVTVSS | low polyreactivity
41 | QVQLVESGGGLVQARVSLRLSCAASGITFRYYAMGWYRQAPGKERELVAAITRGGGSTYYADSVKGRFTISRDNAKNTVYLQMNSLKPEDTAVYYCAAAGSRYAWGYGYWGQGTQVTVSS | high polyreactivity
42 | QVQLVESGGGLVQAGGSLRLSCAATGSIFAVYAMGWYRQAPGKERELVARITRGGGSTYYADSVKGRFTISRDNAKNTVYLQMNSLKPEDTAVYYCAAARWSQYRTWMNYWGQGTQVTVSS | high polyreactivity
43 | QVQLVESGGGLVQAGGSLRLSCAASGRIFGYYVMGWYRQAPGKERELVATISSGGSTYYADSVKGRFTISRDNAKNTVYLQMNSLKPEDTAVYYCNTDRYHRVDFEYWGQGTQVTVSS | high polyreactivity
